Reference: article PMC9851726

Molecular target: human complement C3b (human) (UniProt P01024)
UniProt P01024, sequence (P01024 23-667, chain 1 of 2): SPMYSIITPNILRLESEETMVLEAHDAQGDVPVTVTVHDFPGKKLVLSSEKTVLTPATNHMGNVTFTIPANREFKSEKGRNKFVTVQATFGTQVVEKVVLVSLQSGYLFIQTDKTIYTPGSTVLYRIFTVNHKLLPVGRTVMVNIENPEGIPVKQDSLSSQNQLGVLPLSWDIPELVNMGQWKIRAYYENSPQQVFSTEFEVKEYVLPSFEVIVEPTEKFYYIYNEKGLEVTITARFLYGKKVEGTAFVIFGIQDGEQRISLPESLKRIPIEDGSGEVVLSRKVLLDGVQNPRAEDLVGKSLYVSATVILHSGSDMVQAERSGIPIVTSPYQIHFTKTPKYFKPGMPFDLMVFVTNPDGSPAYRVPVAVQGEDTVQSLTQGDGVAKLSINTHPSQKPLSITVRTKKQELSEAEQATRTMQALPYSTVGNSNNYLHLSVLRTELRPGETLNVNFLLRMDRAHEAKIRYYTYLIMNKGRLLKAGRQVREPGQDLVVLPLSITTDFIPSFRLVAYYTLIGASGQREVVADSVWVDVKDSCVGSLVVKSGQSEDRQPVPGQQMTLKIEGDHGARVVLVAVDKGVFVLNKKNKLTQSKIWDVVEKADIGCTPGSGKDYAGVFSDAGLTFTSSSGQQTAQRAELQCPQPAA
UniProt P01024, sequence (P01024 749-1663, chain 2 of 2): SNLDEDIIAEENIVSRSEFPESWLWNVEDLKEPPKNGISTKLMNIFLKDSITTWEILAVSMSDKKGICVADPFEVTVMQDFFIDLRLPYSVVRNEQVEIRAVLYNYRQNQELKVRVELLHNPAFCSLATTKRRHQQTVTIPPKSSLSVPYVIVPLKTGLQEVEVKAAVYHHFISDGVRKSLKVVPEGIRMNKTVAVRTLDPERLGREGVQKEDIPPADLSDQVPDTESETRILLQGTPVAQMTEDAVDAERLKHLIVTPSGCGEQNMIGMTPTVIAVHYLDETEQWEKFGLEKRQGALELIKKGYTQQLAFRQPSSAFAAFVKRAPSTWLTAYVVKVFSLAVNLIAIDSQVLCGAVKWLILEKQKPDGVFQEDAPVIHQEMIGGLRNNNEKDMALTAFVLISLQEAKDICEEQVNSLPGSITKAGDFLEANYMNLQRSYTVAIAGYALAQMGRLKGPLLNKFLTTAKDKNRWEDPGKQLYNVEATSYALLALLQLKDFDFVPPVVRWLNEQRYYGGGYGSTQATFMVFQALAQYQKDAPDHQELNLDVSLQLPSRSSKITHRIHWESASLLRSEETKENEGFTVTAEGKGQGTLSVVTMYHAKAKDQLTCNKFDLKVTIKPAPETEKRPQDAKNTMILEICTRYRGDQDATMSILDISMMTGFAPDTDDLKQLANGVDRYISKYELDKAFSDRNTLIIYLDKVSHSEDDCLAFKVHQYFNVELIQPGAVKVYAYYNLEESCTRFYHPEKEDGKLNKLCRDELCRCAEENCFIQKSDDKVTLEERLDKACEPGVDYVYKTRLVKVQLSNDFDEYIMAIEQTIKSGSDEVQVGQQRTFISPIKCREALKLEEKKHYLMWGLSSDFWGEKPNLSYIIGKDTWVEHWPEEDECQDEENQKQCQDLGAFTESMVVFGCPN

recombinant SARS-CoV-2 ORF8 protein, His-tagged (from UniProt P0DTC8 18-121) (natural protein)
IC50 of inhibition of normal human serum-induced hemolysis of rabbit erythrocytes, ORF8 39 nM to 5000 nM: 2300 nM
